Source: patent publication US7438916B2, “Therapeutic target for protozoal diseases” (priority 2005, dated 2008)

Key:
HepG2 cells [1] = experiment: Liver cell binding inhibition assay with glycosaminoglycans; type: cell-based, human; settings: FIG. 6
Description: Liver Cell binding assay: The binding of proteins was assayed on HepG2 cells as described previously (1, 31). Briefly, cells were plated at a density of 25,000 cells/well, in a 96 well plate, 36 hours before the start of the experiment. The cells were fixed with paraformaldehyde, blocked with 1% BSA, followed by the addition of equimolar concentrations of recombinant proteins. Bound protein was detected using anti-polyhistidine tag monoclonal antibody (1:10,000) and anti-mouse antibody conjugated to alkaline phosphatase (1:2000). Amount of bound protein was detected by using 4-methylumbelliferyl phosphate, a fluorescent substrate, and measurement of fluorescence using a fluorescent plate reader (Molecular Devices, CA) with excitation and emission set at 350 nm and 460 nm respectively. Results are shown as mean±standard deviation of mean of a representative experiment performed in triplicate. Binding inhibition assays were performed by combining the recombinant proteins with increasing amounts of glycosaminoglycans and incubating at 37° C. for 15 min. For enzyme treatment, cells were incubated with different concentrations of Heparinase I or Chondroitinase ABC for 90 minutes at 37° C. as previously described (31), before the addition of proteins. The bound protein was assayed as described above. […]

FRAP = target: T1, FRAP (Plasmodium falciparum, UniProt Q8IL04); experiment: Inhibition of FRAP-mediated hemozoin formation; type: biochemical, P. falciparum; settings: different concentrations, FIG. 14
T1 construct: The activity requires the complete protein as two truncated variants of FRAP; made in house; host or cells: E. coli BL21
T1 sequence (Q8IL04 whole entry, the tested form may be a part): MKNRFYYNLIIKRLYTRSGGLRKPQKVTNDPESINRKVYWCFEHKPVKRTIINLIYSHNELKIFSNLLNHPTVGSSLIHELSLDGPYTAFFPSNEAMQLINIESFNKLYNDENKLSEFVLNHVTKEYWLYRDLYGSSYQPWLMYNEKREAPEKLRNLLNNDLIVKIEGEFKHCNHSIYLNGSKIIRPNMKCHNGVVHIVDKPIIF
Description: FIG. 14. Inhibition of FRAP-mediated hemozoin formation by Chloroquine. Hemozoin formation was investigated in the absence or presence of different concentrations of chloroquine, an antimalarial drug with high affinity for heme.
(§1) The standard assay contained in a total volume of 1.0 ml: 500 mM sodium acetate pH 5.2, 300 nmol/ml hemin-Cl (as substrate) and 500 pmol/ml FRAP, as the source of heme polymerase activity. The amount of FRAP added was chosen such that 50% of the substrate was converted into product (insoluble hemozoin) during the assay. The reaction was initiated by protein addition and allowed to proceed for 16 hours at 37 degree. The reaction was terminated by adding 0.01 ml of 10% SDS solution. The reaction tube was centrifuged at 13,000 rpm for 15 minutes at 23 degrees and the supernatant was carefully removed. The pellet, which contained the polymerized and insoluble hemozoin, was resuspended in 1 ml of 0.1 M sodium bicarbonate pH 9.1 containing 2.5% SDS. […] The pellet obtained after final washing was dissolved in 0.3 ml of 0.1 N NaOH and the absorbance of the solution was measured at 405 nm using a spectrophotometer. Amount of heme polymerized was calculated utilizing a standard curve, prepared by dissolving known amounts of commercially available beta-hematin in 0.1 N NaOH. […]

HepG2 cells [2] = experiment: Liver cell binding assay; type: cell-based, human; settings: FIG. 5
Description: (§2) Liver Cell binding assay: The binding of proteins was assayed on HepG2 cells as described previously (1, 31). Briefly, cells were plated at a density of 25,000 cells/well, in a 96 well plate, 36 hours before the start of the experiment. The cells were fixed with paraformaldehyde, blocked with 1% BSA, followed by the addition of equimolar concentrations of recombinant proteins. Bound protein was detected using anti-polyhistidine tag monoclonal antibody (1:10,000) and anti-mouse antibody conjugated to alkaline phosphatase (1:2000). Amount of bound protein was detected by using 4-methylumbelliferyl phosphate, a fluorescent substrate, and measurement of fluorescence using a fluorescent plate reader (Molecular Devices, CA) with excitation and emission set at 350 nm and 460 nm respectively. Results are shown as mean±standard deviation of mean of a representative experiment performed in triplicate. Binding inhibition assays were performed by combining the recombinant proteins with increasing amounts of glycosaminoglycans and incubating at 37° C. for 15 min. For enzyme treatment, cells were incubated with different concentrations of Heparinase I or Chondroitinase ABC for 90 minutes at 37° C. as previously described (31), before the addition of proteins. The bound protein was assayed as described above.
Therefore, binding activity was probed using a polyhistidine tag monoclonal antibody. […]

HepG2 cells [3] = experiment: Binding to liver cells pretreated with glycosaminoglycan cleaving enzyme; type: cell-based, human; settings: for Inhibition of Binding (%): 100 nM protein
Description: as §2
The involvement of HSPG as a receptor was further verified by evaluating the binding of the protein on liver cells that were pretreated with specific glycosaminoglycan-cleaving enzymes. Cells were pre-treated with heparinase I or chondroitinase ABC followed by the evaluation of binding activity of FRAP and FRAP2. Heparinase I selectively removes heparan sulfate while chondroitinase ABC cleaves chondroitin sulfate A, B and C type sugars from the liver cell surface. Both, FRAP and FRAP2 lost 50% of their binding activity on heparinase I treated cells (Table 4) confirming the involvement of a heparin-based receptor on the liver cell surface.

[4] = system: P. falciparum sporozoites; experiment: Sporozoite invasion assay; type: cell-based, P. falciparum (strain NF54); settings: versus culture medium
Description: Sporozoite Invasion Assay: Invasion assay was performed with HepG2 (Human hepatoma) cells as previously described (31). Briefly, HepG2 cells were plated (50,000 cells/0.3 ml) and incubated overnight at 37° C. in a CO2 incubator. Next day, medium was removed and 50 μl of diluted FRAP proteins (final concentrations: 20 and 10 μg/ml) or anti-FRAP2 antibodies (40 μg/ml final concentration) were added per well. Anti CS monoclonal antibody NFS1 was used at a final concentration of 100 μg/ml. All protein concentrations and serum dilutions were evaluated in triplicate. This was immediately followed by the addition of 20,000 sporozoites in 50 μl of medium to each well. P. falciparum (strain NF54) sporozoites were obtained from the salivary glands of An. stephensi mosquitoes as described by Ozaki (33). The sporozoites were allowed to invade liver cells for three hours followed by the washing of cells with PBS at pH 7.4. Subsequently, the cells were fixed with cold methanol. Sporozoites were visualized by immunostaining using NFS1 as primary antibody and anti-mouse IgG-peroxidase conjugate. The slides were mounted with Paramount and only intracellular sporozoites were counted as described (31). Percentage inhibition of invasion was calculated with the following formula: [(Control-test)/control]×100 Results

heme = experiment: FRAP-mediated hemozoin formation assay; type: biochemical; settings: result in words
Description: FIG. 8. FRAP-mediated neutralization of toxic heme into non-toxic Hemozoin. 500 pmoles of each of the protein was incubated with different concentrations of free heme at 37° C. for 16 hours, under acidic conditions (500 mM Sodium acetate pH 5.2). After 16 hours, free heme was removed by washing and the insoluble pellet representing hemozoin was solubalized in sodium hydroxide and estimated using a spectrophotometer.
as §1, with “degree.” for “degree. The reaction was terminated by adding 0.01 ml of 10% SDS solution. The reaction tube was centrifuged at 13,000 rpm for 15 minutes at 23 degrees and the supernatant was carefully removed. The pellet, which contained the polymerized and insoluble hemozoin, was resuspended in 1 ml of 0.1 M sodium bicarbonate pH 9.1 containing 2.5% SDS.”
Furthermore, the hemozoin formation was also evaluated with truncated variants and point mutants of FRAP to not only describe its structural requirements, but also pin point the residues that are involved in the polymerization process.

chondroitin sulfate A [reference compound]
inhibition of FRAP and FRAP2 binding to liver cells by the glycosaminoglycan (HepG2 cells [1]; highest concentration evaluated): no inhibition

CCN(CC)CCCC(C)Nc1ccnc2cc(Cl)ccc12 (centres unmarked) [Chloroquine, chloroquine]
inhibition of FRAP-mediated hemozoin formation (FRAP): inhibited heme polymerization in a dose dependent manner
inhibition of FRAP-mediated hemozoin formation (FRAP; listed as chloroquine): effectively inhibited

B1: FRAP2: truncated FRAP containing only amino acids 1-87, SEQ ID NO: 25 (protein, listed as Plasmodium falciparum)
chain: MKNRFYYNLIIKRLYTRSGGLRKPQKVTNDPESINRKVYWCFEHKPVKRTIINLIYSHNELKIFSNLLNHPTVGSSLIHELSLDGPY
loss of binding activity in comparison to the full length protein (HepG2 cells [2]): 50%
binding on liver cells (HepG2 cells [2]; five concentrations of recombinant protein): only half the strength
reduction of binding activity in the presence of free heparin (HepG2 cells [1]; HepG2 cells): 60%
Inhibition of Binding (%) (HepG2 cells [3]; cells pretreated with Heparinase I 1.25 U/ml for 90 minutes): 42.3 ± 10.4%
Inhibition of Binding (%) (HepG2 cells [3]; cells pretreated with Heparinase I 2.50 U/ml for 90 minutes): 41.4 ± 1.5%
Inhibition of Binding (%) (HepG2 cells [3]; cells pretreated with Heparinase I 5.00 U/ml for 90 minutes): 49.4 ± 9.2%
loss of binding activity on heparinase I treated cells (HepG2 cells [3]; text summary of Table 4): 50%
% Inhibition of invasion of HepG2 cells by P. falciparum sporozoites ([4]; 10 μg/ml): 88.1 ± 4.6%
% Inhibition of invasion of HepG2 cells by P. falciparum sporozoites ([4]; 20 μg/ml): 92.4%
hemozoin formation (heme polymerization) activity (heme): did not show any hemozoin formation

B2: FRAP from rodent malaria parasite P. yoelii: P. yoelii FRAP ortholog, SEQ ID NO: 9 (protein, listed as Plasmodium yoelii)
chain: MKKKLYNLVLKRSYTRSGGLRKPQKVTNDPESINRKVYWCFEHKPVRRTVINLIFSHNELKNFSTLLRNTNASSSLIHELSLEGPYTGFLPSDEALNLLSTNSLNKLYKDDNKMSEFVLNHFTKGLWMYRDLYGSSYQPWLMYNEKREAPEKIQTLVNNDIIVKIEGEFKNCDHSIYLNEAKIIRPNMKCHNGIIHIIDKPIIF
hemozoin formation (heme polymerization) activity (heme): demonstrated
